Assay results reported in the nanobody polyreactivity screen of Harvey et al. (2022).

Assay: yeast display, Sf9 membrane polyspecificity reagent, FACS + sequencing; frameworks hold sequencing errors
Procedure, shortened: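 A nanobody's polyreactivity label depends on the gate it was sorted from. Yeast display cells were stained with 10% biotinylated, detergent-solubilized Sf9 membrane reagent for 1 hour at 4 °C, enriched on streptavidin microbeads and sorted by FACS. The low and high (top ~1%) gates were set on anti-HA fluorescence for expression and streptavidin fluorescence for reagent binding.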

Sequence | polyreactivity (PSR sort gate)
QVQLVESGGGLVQAGGSLRLSCAASGFISYENAMGWYRQAPGKERELVAAISSGGSTNYADSVKGRFTISRDNAKNTVYFQMNSLKPEDTAVYYCAATLPGWYNEDDSWGQGTQVTVSS | low polyreactivity
QVQLVDSGGGLVQAGGSLRLSCAASGSTFIYYAMGWYRQAPGKEREFVAAISYRGGSTYYADSVKGRFTISRDNAKNTVYLQMNSLKPEDTAVYYCAASYRKWNDYWGQGTQVTVSS | high polyreactivity
QVQLVESGGGLVQAGGSLRLSCAASGSTFTNYAMGWYRQAPGKERELLARITYNVGRTYYADSVKGRFTISRDNAKNTVYLQMNSLKPEDTAVYYCAAGVGWRYRVRWYYSLGDYWGQGTQVTVSS | high polyreactivity
QVQLVESGGGLVQAGGSLRLSCAASGSTFKKYAMGWYRQAPGKERELVAAITWTGGSTYYADSVKGRFTISRDNAKNTVYFQMNSLKPEDTAVYYCAAYKTYAVKYYWGQGTQVTVSS | high polyreactivity
QVQLVESGGGLVQAGGSLRLSCAASGINFTVYAMGWYRQAPGKVRELVATISRRGGNTFYADSVKGRVTISRDNAKKTVYLKMNSLTPEDTAVYYCAARRYVDYRWDYGYWGQGTQVTVSS | high polyreactivity
QVQLVESGGGLVQAGGSLRLSCAASGSTFVYYAMGWYRPAPGKERELVAAISKRGGSTYYADSVKGRFTISRDNAKNTVYLQMNSLKPEDTAVYHCAADQARGRYTLDYWGQGTQVTVSS | high polyreactivity
QVQLVESGGGLVQAGGSLRLSCAASGIIFGPYAMGWYRQAPGKERELVAAISSSGGNTYYADSVKGRFTISRDNAKNTVYLQMNSLKPEYTAVYYCAAEGYWGQPFDYDGALEYWGQGTQVTVSS | high polyreactivity
QVQLVESGGGLVQAGGSLRLSCAASGRIFSYYTMGWYRQAPGKERELVAAISYRGGSTYADSVKGRFTISRDNAKNTVYLQMNSLKPEDTAVYYCAADDLSYVGYYYGYVDDDYWGQGTQVTVSS | high polyreactivity
QVQLVESGGGLVQAGGSLRLSCAASGYTFYAMGWYRQAPGKERELVAAITYRGARTYYADSVKGRFTISRDNAKNTVYLQMNSLKPEDTAVYYCNADYWGQGTEVTVSS | low polyreactivity
QVQLVESGGGLVQAGGSLRLSCAASGRIFASNAMGWYRQAPGKERELVAAITTTGGSTYYADSVKGRFTISRDNAKNTVYLQMNSLKPEDTAVYYCAARAIPRVRRYGSMNYWGQGTQVTVSS | high polyreactivity
QVQLVESGGGLVQAGGSLRLSCAACGSIIYRNAMGWYRPAPGKERELVAAIRTSSGSTYYADSVKGRFTISRDNAKNTVYLQMNSLKPEDTAVYYCAAPRLYGYYSWGQGTQVTVSS | low polyreactivity
QVQLVESGGGLVQAGGSLRLSCAASGSTFGGNAMGWYRQAPGKERELVAAITIGGRTNYADSVKGRFTISRDYAKNTVYLQMNSLKPEDTAVYYCAKDRDQWQDYWGQGTQVTVSS | low polyreactivity
QVQLVESGGGLVQAGGSLRLSCAASGITFTAYDMGWYRQAPWKEREFVAAISTIGGSTNYADSVKGRFTISRDNAKNTVYLQMNSLKPEDTAVYYCFAWVYQFGYWGQGTQVTVSS | low polyreactivity
QVQLVESGGGLVQAGGSLRLSCAASGRIFRYYAMGWYRQAPGKERELVAAISWSGTSTYYADSVKGRFTISRDNAKNTVYLQMNSLKPEDTAVYYCAKVGYQYATYRSDYWGQGTQVTVSS | high polyreactivity
QVHLVESGGGLVQAGGSLRLSCDASGFTFYWYAMGWYRQPPGKERELVAAISNRGGSKYYADSVKGRFTISRDNAKNTVYLQMNSLKPEDTAVYYCGAEWYGRMYYWGQGTQVTVSS | high polyreactivity
QVQLVESGGGLVQAGGSLRLSCADSGSIFWYYAMGWSRQAPGKETELVADITSTGGSTYYADSVKGRFTISRDYAKNTVYFQMNSLKPEVSAVYYCAAEACYHWYYSLGYWGQGTQVTVSS | high polyreactivity
QVQLVESGGGLVHAGGSLRLSCAASGSIFYHYAMGWYRQAPGKERELVAAITWSGGSTYYADSVKGRFTISRDNAKNTVYLQMNSLKPEDTAVYYCATSSNVEFGYWGQGTQVTVSS | low polyreactivity
QVQLVESGGGLVQAGGSLRISCAASGNTFEHNAMGWYRQAPGKERELVAVISKSGGRTYYADSVKGRFTISRDNAKNTVYLQMNSLKPEDTAVYYCAKRSPFITWNGISYVEYDYWGPGTQVTVSS | low polyreactivity
QVQLVESGGGLVQAGGSLRLSCAASGRTFSAYAMGWSRQAPGKERELVAAISRSGGRTYYADSVKGRFTISRDNAKNTVYLQMNSLKPEDTAVYYCAAGSNIWGQGTQVTVSS | high polyreactivity
QVQLVESGGGLVQAGGSLRLSCAASGLTFPHNAMGWYRQAPGKERELVAAITSSGCSTYYADSVKGRFTISRDNAMNSVYLQMNSLKPEDTAVYYCAKRDGTDRLDDYWGQGTQVTVSS | high polyreactivity
QVQLVESGGGLVQAGGSLRLSCAASGITFKAYAMGWYRQAPGKERELVAAITGSGGRTYYADSVKGRFTISRDNAKNTVYLQMNSLKPEDTAVYYCAKTSSWYLRPKYYYWGQGTQVTVSS | high polyreactivity
QVQLVESGGGLVQAGGSLRLSCAASGRTFRFYAMGWYRQAPGKERELVAAIRWSGGSTYYADSVKGRFTISRDNAKNTVYLQMNSLKPEETAVYYCAAARWSQYRTWMNYWGQGTQVTVSS | high polyreactivity

Sequence | polyreactivity (PSR sort gate)
QVQLVESGGGLVQAGGSLRLSCAASGSIFSGNAMGWYRQAPGTERELVATISWSGGSTNYADSVKGRFTISRDNAKNTVYIQMNSLKPEETSVYYCNAYVAYWGWVYRVDYWRQGTQVTVSS | low polyreactivity
QVQLVESGGGLVQAGGSLRLSCAASGGIFPGNAMGWYRQAPGKERELVATISYSGGSTYYADSVKGRFTISRDYAKNTVYLQMNSLKPEDTAVYYCAARGYKPTRSRRTEYGYWGQGTQVTVSS | high polyreactivity
QVQLVESGGGLVQAGGSLRLSCAASGYNFSIYAMGWYRQAPGKERELVAAIRSDARTYYADSVKGRFTISRDNAKNTVYLQMNSLKPEDTAVYYCAADQYSYAANRPFYRGYYWGQGTQVTVSS | high polyreactivity
KVQLVESGAGFVQAGGSLRLSCAASGFIFPVYTMGWYRQAPGKERELVAAITQIGGSTHYADSVKGRFTISRDNAKNTVYLQMNSLKPEYTAVYYCNAVPHPYDWGQGTQVTLSS | low polyreactivity
QVQLVESWGGLVQAGGSLRLSCAASGSTFQPYAMGWYRQAPGKERELVAAIRSIAGSTYYADSVKGRFTISRDNAKITVYLQMNSLKPEDTAVYYCAADWWRVEMDYWGQGTQVTVSS | low polyreactivity
QVQLVESGGGLVQAGGSLRLSCAASGRTFGYYTMGWYRQAPGKERELVAAISWNGDDTYYADSVKGRFTISRDNAKNTVYLQMNSLKPEDTAVYYCAKDFLGNYYWTDVYTYGGEGDYWGQGTQVTVSS | low polyreactivity
QVQLVESGGGLVQAGGSLRLSCDASGSIFSTYVMGWYRQAPGKERELVAAITVSVGSTYYADSVKGRFTISRDNAKNTVYLQMNSLKPEDTAVYYCAAGSYSRYLYSLYFDFDYWGQGTQVTVSS | low polyreactivity
QVQLVESGGGLVQAGGSLRLSCAASGSTFTPNAMGWYRQAPGKERELVASISTTGGNTYYADSVKGRFTISRDNAKNTVYLQMNSLKPEDTADYYCNAVRSVYLYGYIYGVDYWGQGTQVTVSS | low polyreactivity
QVQLVESGGGLVQAGGSLRLSCAASGSTFKVYAMGWYRQAPGKERELVAAISTGGGSTYYADSVKGRFTISRDNAKNTVSLQMNSLKPEDTAVYYCAAVDRYPYAGYYWGQGTQVTVSS | high polyreactivity
QVQLVESGGGLVHAGGSLRLSCSATRSIFLGNAMGWYRQAPGKERELVAAISRSGGSTYYADSVKGRFTISRDNAKNTVYLQMNSLKPEDTAVYYCAAVVSSRVKQFEYWGQGNQVTVSS | high polyreactivity
QVQLVESGGGLVQAGGSLRLSCAASGSIFAEYAMGWYRQAPGKERELVAAITTSGSTNYADSVKGRFTISRDNAKNTVYLQMNSLKPEDTAVYYCNALFQQRYLDSSGEYWGQGTQVTVSS | low polyreactivity
QVQLVESGGGLVQAGGSLRLSCAASGSTFSGYAMGWYRQAPGKERELVAAITSSGGRTYYADSVKGRFTISRDNAKNTVYLQMNSLKPEDTAVYYCAALYYHEYDYWGQGTQVTVSS | low polyreactivity
QVQLVESGGGLVQAGGSLRLSCAASGSTFQVYAKGWYRQAPGKERELVAAIDSGVSTYYADSVKGLFTFSRDNAKNTVYLQMNSLKPEDTAVYYWYGYDYWGQGTQVTVSS | low polyreactivity
QVQLVESGGGLVHAGGSLRLSCAASGFTFYRNTMGWYRQAPGKERELVAAISTRAGSTYYADSVKGRFTISRDNAKNTVYLQMNSLKPEDTAVYYCAVLTYRGRFEYWGQGTQVTVSS | high polyreactivity
QVQLVESGGGLVQAGGSLRLICAASGFTLYAYAMGWYRQAPGKERELVAAISDSGGDTYYADSVKGRFTISRDNAKNTVYLQMNSLKPEDTAVYYCAALYNHWWEYDYWGQGTQVTVSS | low polyreactivity
QVQLVESGGGLVQAGGSLRLSCAASGRTFHFYAMGWYRQAPGKERELVASITWSAVRTYYADSVKGRFTISRDNAKNTVYLQMNSLKQVDTAVYYCAKEWDYRLMDYWGQGTQVTVSS | low polyreactivity
QVQLVESGGGLVQAGGSLRLSCAASGGIFAYYGMGWYRQAPGKERELVAAIWIGGNTYYADSVKGRFTISRDNAKNTVYLQMNSLKPEDTAVYDCAAAGSAYYSTRKWDSYYYWGQGTQVTVSS | low polyreactivity
QVQLVESGGGLVQAGGSLRLSCAASGSNFNNNAMGWYRQAPGKERELVASISLSAGSTYYADSVKGRFTISRDNAKNTVYLQMNSLKPEDTAVYYCAAEVGYWGYQISGDYWGQGTQVTVSS | low polyreactivity
QVQLVESGGGLVQAGGSLRLSCAASGSIFSVNTMGWNRKAPGKERELVATIRTGDSTNYADSVKGRFTISRDNAKNSVYLQMNSLKPEDTAVYYCAAEWSSMNFDYWGQGTQVNVSS | low polyreactivity
QVQLVESGGGLVKAGGSLRLSCAASGSILGAYNMGWYRQAPGKERELVSAITRRGGSTYYADSVKGRFTISRDNAKNTVYLQMNSLNPEDTAVYYCNAEYGFWYDYLVVPYDYWGQGTQVTVSS | low polyreactivity
QVQLVESGGGLVQAGGSLRLSCAASGSTFRGNAMGWYRQAPWKEREFVASISRRGGRTNYADSVKGRFTISRDNAKNTVYLQMNSLKPEDTAVYYCAAGRYRYKYRYFTAWYGYWGQGTQVTVSS | high polyreactivity
